Laboratory results from patent publication US20210009673A1, “METHODS FOR REGULATING BREAST CANCERS” (priority 2018, published 2021).

Tests used:
[1] = tested on: β-catenin; assay: tyrosine phosphorylation of β-catenin in PTN-stimulated U87MG cells; format: cell-based, human; conditions: control U87MG cells; 50 ng PTN/ml
Description: FIG. 1: FIG. 1 illustrates in (A) PTN stimulation of tyrosine phosphorylation of β-catenin in cells that express RPTPβ/ζ and ALK. COS7 cells transiently expressing ALK and RPTPβ/ζ were stimulated with 10 ng PTN/ml. Cell lysates were prepared and used to immunoprecipitate β-catenin. The immunoprecipitates were analyzed in Western blots probed with anti-phosphotyrosine antibodies. Lane 1, cells transfected with ALK that were not stimulated with PTN. Lane 2, cells transfected with ALK stimulated with PTN. Lane 3, cells transfected with empty vector not stimulated with PTN. Lane 4, cells transfected with empty vector stimulated with PTN. […] The immunoprecipitates were analyzed in Western blots probed with anti-phosphotyrosine antibodies. […] Cell lysates were used to immunoprecipitate β-catenin and the immunoprecipitates were analyzed in Western blots probed with anti-phospho-tyrosine antibodies and reprobed with anti-β-catenin antibodies. […] MCF-7 cells that stably express EGFR/RPTPβ/ζ not transfected with ALK were analyzed as above. […] Lysates of MCF-7 cells and lysates of MCF-7 cells stimulated with EGF were used to immunoprecipitate β-catenin and the immunoprecipitates were analyzed in Western blots probed with anti-phospho-tyrosine antibodies and separately with anti-β-catenin antibodies. […]

[2] = tested on: GSK3β; assay: phosphorylation of GSK3β serine 9 in PTN-stimulated HUVS cells; format: cell-based, human; conditions: 5, 10 and 20 minutes after PTN
Description: FIG. 11: FIG. 11 illustrates: human umbilical vein stromal cells not stimulated or stimulated with 50 ng/ml of PTN for 2, 5, 10 or 20 minutes were used to prepare cell lysates that were analyzed in Western blots probed with anti-phospho threonine 308 Akt (panel A), anti-phospho serine 473 Akt (panel B), anti-phospho-serine 9 GSK3β (panel C), anti-phospho-serine 33, 37 and […] β-catenin (panel D) or anti-actin antibodies (panel E). Akt was immunoprecipitated from those lysates using anti-Akt antibodies, incubated with a fusion peptide containing the 20 N-terminal amino acids of GSK3β and analyzed in Western-blots probed using anti-phospho-serine 9 GSK3β antibodies (panel F).
Lysates from HUVS cells stimulated with PTN as above were then analyzed in Western blots probed with anti-phosphoserine 9 GSK3β antibodies. GSK3β is known to be phosphorylated by Akt at serine 9 and to inactivate its catalytic activity. […]
The association of adaptor proteins that associate with specific phosphorylated sites in activated EGFR are responsible for the activation of phosphatidyl-inositol 3-kinase (PI3K). […] The cells were stimulated with PTN for 2, 5, 10, and 20 minutes, cell lysates were prepared, and the lysates were analyzed in Western blots probed with anti-phospho-Akt (Ser473), anti-phospho-GSKβ (Ser9), and anti-phospho-β-catenin (Thr42) antibodies. […]

B1: pleiotrophin (protein, UniProt P21246 33-168, looked up)
Pleiotrophin: GKKEKPEKKVKKSDCGEWQWSVCVPTSGDCGLGTREGTRTGAECKQTMKTQRCKIPCNWKKQFGAECKYQFQAWGECDLNTALKTRTGSLKRALHNAECQKTVTISKPCGKLTKPKPQAESKKKKKEGKKQEKMLD
Q: With B1 as the molecule, how does the “phosphorylation of β-catenin” value [1] read?
A: Its value is “sharply increased”.

Q: What about the “GSK3β serine 9 phosphorylation” value [2] of the same molecule?
A: The value was “striking increase”.
